Experimental data reported in patent publication US20220227870A1 (Innovent, published 2022).

Tests used:
[1] = target: T1, human LAG-3 expressed on the surface of cells (293-LAG-3 cells) (human, UniProt P18627 23-525); assay: FACS on HEK293 cells overexpressing human LAG-3, PE-conjugated anti-human Fc detection, MFI
T1 construct: whole, on cells; also called HEK293 cells overexpressing LAG-3; CD223
T1 sequence (looked up): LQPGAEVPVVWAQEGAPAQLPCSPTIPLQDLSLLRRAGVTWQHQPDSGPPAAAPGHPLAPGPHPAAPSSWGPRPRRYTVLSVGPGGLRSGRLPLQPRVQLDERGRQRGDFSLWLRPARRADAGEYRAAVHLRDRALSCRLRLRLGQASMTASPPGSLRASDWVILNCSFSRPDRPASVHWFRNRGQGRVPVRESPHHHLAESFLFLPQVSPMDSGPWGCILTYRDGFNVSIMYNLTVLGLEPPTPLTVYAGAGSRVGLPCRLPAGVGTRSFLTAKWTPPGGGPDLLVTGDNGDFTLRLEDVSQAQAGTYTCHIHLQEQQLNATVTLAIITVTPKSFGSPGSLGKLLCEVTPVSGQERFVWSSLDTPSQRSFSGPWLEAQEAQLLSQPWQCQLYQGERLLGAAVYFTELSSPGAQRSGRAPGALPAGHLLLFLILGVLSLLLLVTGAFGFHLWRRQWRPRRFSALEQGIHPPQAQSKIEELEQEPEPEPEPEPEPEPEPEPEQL

[2] = target: T2, human 4-1BB expressed on the surface of cells (CHO-S-4-1BB cells) (human, UniProt Q07011 24-255); assay: FACS on CHO-S cells overexpressing human 4-1BB, PE-conjugated anti-human Fc detection, MFI
T2 construct: whole, on cells; also called CHO-S cells overexpressing 4-1BB; CD137

[3] = target: T3, human CD47 expressed on the surface of cells (CHO-S-CD47 cells) (human, UniProt Q08722 19-323); assay: FACS on CHO-S cells overexpressing human CD47, PE-conjugated anti-human Fc detection, MFI
T3 construct: whole, on cells; also called CHO-S cells overexpressing CD47; CHO-CD47

h CD47 (Acrobiosystems) = target: T4, h CD47 (Acrobiosystems) (human, UniProt Q08722 19-139); assay: ForteBio Octet BLI; antibody loaded on AHC sensor, h CD47 100 nM in solution
T4 construct: Bought soluble antigen; also called CD47 protein in solution

[4] = target: T5, tumor cells H292 (ATCC), co-incubated with human red blood cells; assay: flow cytometry; CFSE-labelled H292 cells co-incubated 1:20 with human red blood cells; antibody 0.123 nM
T5 construct: also called H292 cells

[5] = target: T5, tumor cells H292 (ATCC), co-incubated …; assay: flow cytometry; CFSE-labelled H292 cells co-incubated 1:20 with human red blood cells; antibody 3.333 nM
[6] = target: T5, tumor cells H292 (ATCC), co-incubated …; assay: flow cytometry; CFSE-labelled H292 cells co-incubated 1:20 with human red blood cells; antibody 0.041 nM
[7] = target: T5, tumor cells H292 (ATCC), co-incubated …; assay: flow cytometry; CFSE-labelled H292 cells co-incubated 1:20 with human red blood cells; antibody 10.000 nM
[8] = target: T5, tumor cells H292 (ATCC), co-incubated …; assay: flow cytometry; CFSE-labelled H292 cells co-incubated 1:20 with human red blood cells; antibody 1.111 nM
[9] = target: T3, human CD47 expressed on the surface of …; assay: FACS on CHO-S cells overexpressing human CD47; antibody sample after 30 days at 40 C
[10] = target: T5, tumor cells H292 (ATCC), co-incubated …; assay: flow cytometry; CFSE-labelled H292 cells co-incubated 1:20 with human red blood cells; antibody 0.370 nM
[11] = target: T5, tumor cells H292 (ATCC), co-incubated …; assay: flow cytometry; CFSE-labelled H292 cells co-incubated 1:20 with human red blood cells; antibody 0.014 nM
[12] = target: T3, human CD47 expressed on the surface of …; assay: FACS on CHO-S cells overexpressing human CD47; antibody sample of day 0
[13] = target: T6, human PD-L1 expressed on the surface of cells (CHO-S-PD-L1 cells) (human, UniProt Q9NZQ7 19-290); assay: FACS on CHO-S cells overexpressing human PD-L1, PE-conjugated anti-human Fc detection, MFI
T6 construct: whole, on cells; also called CHO-S cells overexpressing PD-L1; PD-L1 aAPC/CHO-K1 cells
T6 sequence (Q9NZQ7 19-290): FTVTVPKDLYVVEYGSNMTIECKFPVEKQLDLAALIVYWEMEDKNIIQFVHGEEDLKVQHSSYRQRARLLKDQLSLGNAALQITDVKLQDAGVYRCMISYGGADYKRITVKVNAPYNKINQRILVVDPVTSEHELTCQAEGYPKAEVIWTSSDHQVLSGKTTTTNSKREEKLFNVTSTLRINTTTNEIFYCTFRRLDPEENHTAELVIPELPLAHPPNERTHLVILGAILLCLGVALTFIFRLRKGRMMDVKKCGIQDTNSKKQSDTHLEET

T2 sequence (Q07011 24-255): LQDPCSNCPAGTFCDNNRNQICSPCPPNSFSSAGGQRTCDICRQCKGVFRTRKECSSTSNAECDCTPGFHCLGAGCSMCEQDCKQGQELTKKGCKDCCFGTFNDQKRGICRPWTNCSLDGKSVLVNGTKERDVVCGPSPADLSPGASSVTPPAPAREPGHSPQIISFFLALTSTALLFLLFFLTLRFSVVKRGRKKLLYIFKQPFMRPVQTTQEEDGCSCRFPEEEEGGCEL

B1: anti-LAG-3 antibody ADI-31853 (antibody, V domains shown)
VH: QLQLQESGPGLVKPSETLSLTCTVSGGSIYSESYYWGWIRQPPGKGLEWIGSIVYSGYTYYNPSLKSRVTISVDTSKNQFSLKLSSVTAADTAVYYCARVRTWDAAFDIWGQGTMVTVSS
VL: DIQMTQSPSSLSASVGDRVTITCQASQDISNYLNWYQQKPGKAPKLLIYDASNLETGVPSRFSGSGSGTDFTFTISSLQPEDIATYYCQQVLELPPWTFGGGTKVEIK
notes: also called parent antibody (anti-LAG-3)
With B1 the “EC50 (read off the curve)” value [1] was roughly 0.5 nM.

B2: anti-4-1BB antibody BMS-663513 (antibody, V domains shown)
VH: QVQLQQWGAGLLKPSETLSLTCAVYGGSFSGYYWSWIRQSPEKGLEWIGEINHGGYVTYNPSLESRVTISVDTSKNQFSLKLSSVTAADTAVYYCARDYGPGNYDWYFDLWGRGTLVTVSS
VL: EIVLTQSPATLSLSPGERATLSCRASQSVSSYLAWYQQKPGQAPRLLIYDASNRATGIPARFSGSGSGTDFTLTISSLEPEDFAVYYCQQRSNWPPALTFGGGTKVEIK
notes: also called parent antibody (anti-4-1BB)
For B2, the “EC50 (read off the curve)” value [2] was roughly 1 nM.

B3: IgG1 Control (antibody, V domains shown)
VH: EVRLLESGGGLVQPGGSLRLSCAASGFTFSNYAMGWVRQAPGKGLEWVSAISGSGGSTYYADSVKGRFTTSRDDSKNALYLQMNSLRAEDTAVYYCARGGPGWYAADVWGQGTTVTVSS
VL: DIQMTQSPSSLSASVGDRVTITCRASQSISSYLNWYQQKPGKAPKLLIYAASSLQSGVPSRFSGSGSGTDFTLTISSLQPEDFATYYCQQADLPAFAFGGGTKVEIKR
notes: also called IgG1 negative control antibody
B3: no binding (tested: about 300 nM) [3].

B4: anti-CD47/PD-L1 bispecific antibody Kh2NF-PC (bispecific antibody, human IgG1, kappa, L234A L235A)
heavy: not shown
light: DIQMTQSPSSVSASVGDRVTITCRASQGISRWLAWYQQKPGKAPKLLIYAASSLQSGVPSRFSGSGSGTDFTLTISSLQPEDFATYYCQQTVSFPITFGGGTKVEIKRTVAAPSVFIFPPSDEQLKSGTASVVCLLNNFYPREAKVQWKVDNALQSGNSQESVTEQDSKDSTYSLSSTLTLSKADYEKHKVYACEVTHQGLSSPVTKSFNRGEC
chain: QVQLQESGGGLVQPGGSLRLSCAASAYTISRNSMGWFRQAPGKGLEGVAAIESDGSTSYSDSVKGRFTISLDNSKNTLYLEMNSLRAEDTAVYYCAAPKVGLGPRTALGHLAFMTLPALNYWGQGTLVTVSSGGGGSGGGGSGGGGSGGGGSQVQLQESGGGLVQPGGSLRLSCAASAYTISRNSMGWFRQAPGKGLEGVAAIESDGSTSYSDSVKGRFTISLDNSKNTLYLEMNSLRAEDTAVYYCAAPKVGLGPRTALGHLAFMTLPALNYWGQGTLVTVSSDKTHTCPPCPAPEAAGGPSVFLFPPKPKDTLMISRTPEVTCVVVDVSHEDPEVKFNWYVDGVEVHNAKTKPREEQYNSTYRVVSVLTVLHQDWLNGKEYKCKVSNKALPAPIEKTISKAKGQPREPQVCTLPPSRDELTKNQVSLSCAVKGFYPSDIAVEWESNGQPENNYKTTPPVLDSDGSFFLVSKLTVDKSRWQQGNVFSCSVMHEALHNHYTQKSLSLSPG
notes: Triple-chain antibody (1+2 format)
For B4, the Kd (h CD47 (Acrobiosystems)) was 1.31 nM, the koff (h CD47 (Acrobiosystems)) was 0.00155 s⁻¹ and the kon (h CD47 (Acrobiosystems)) was 1.18e+06 M⁻¹ s⁻¹. The “proportion of antibody binding to H292 cells” value (“proportion of antibody binding” for short) [4] was 88.5%, the “proportion of antibody binding” value [5] was 12.1% and the “proportion of antibody binding” value [6] was 82%. For the same binder, the “proportion of antibody binding” value [7] was 12.5%, the “proportion of antibody binding” value [8] was 23% and the “EC50 (read off the curve)” value [9] was roughly 3 nM. The “EC50 (read off the curve)” value [3] was roughly 2 nM, the “proportion of antibody binding” value [10] was 44.5% and the “proportion of antibody binding” value [11] was 14.9%. For the same binder, the “EC50 (read off the curve)” value [12] was roughly 2 nM.

B5: anti-CD47/PD-L1 bispecific antibody Kh2NF-PC-NL (bispecific antibody, human IgG1, kappa, L234A L235A)
heavy: not shown
light: DIQMTQSPSSVSASVGDRVTITCRASQGISRWLAWYQQKPGKAPKLLIYAASSLQSGVPSRFSGSGSGTDFTLTISSLQPEDFATYYCQQTVSFPITFGGGTKVEIKRTVAAPSVFIFPPSDEQLKSGTASVVCLLNNFYPREAKVQWKVDNALQSGNSQESVTEQDSKDSTYSLSSTLTLSKADYEKHKVYACEVTHQGLSSPVTKSFNRGEC
chain: QVQLQESGGGLVQPGGSLRLSCAASAYTISRNSMGWFRQAPGKGLEGVAAIESDGSTSYSDSVKGRFTISLDNSKNTLYLEMNSLRAEDTAVYYCAAPKVGLGPRTALGHLAFMTLPALNYWGQGTLVTVSSQVQLQESGGGLVQPGGSLRLSCAASAYTISRNSMGWFRQAPGKGLEGVAAIESDGSTSYSDSVKGRFTISLDNSKNTLYLEMNSLRAEDTAVYYCAAPKVGLGPRTALGHLAFMTLPALNYWGQGTLVTVSSDKTHTCPPCPAPEAAGGPSVFLFPPKPKDTLMISRTPEVTCVVVDVSHEDPEVKFNWYVDGVEVHNAKTKPREEQYNSTYRVVSVLTVLHQDWLNGKEYKCKVSNKALPAPIEKTISKAKGQPREPQVCTLPPSRDELTKNQVSLSCAVKGFYPSDIAVEWESNGQPENNYKTTPPVLDSDGSFFLVSKLTVDKSRWQQGNVFSCSVMHEALHNHYTQKSLSLSPG
notes: Triple-chain antibody without a linker between the two VHH; Fc with LALA and knob-in-hole mutations
B5 showed a Kd (h CD47 (Acrobiosystems)) of 1.07 nM, a koff (h CD47 (Acrobiosystems)) of 0.00128 s⁻¹ and a kon (h CD47 (Acrobiosystems)) of 1.19e+06 M⁻¹ s⁻¹. The “proportion of antibody binding” value [4] was 83.2%, the “proportion of antibody binding” value [5] was 13.2% and the “proportion of antibody binding” value [6] was 46.3%. The “proportion of antibody binding” value [7] was 11.3%, the “proportion of antibody binding” value [8] was 41% and the “EC50 (read off the curve)” value [3] was roughly 2 nM. For the same binder, the “proportion of antibody binding” value [10] was 61.6%, the “proportion of antibody binding” value [11] was 1.41% and the “EC50 (read off the curve)” value [12] was roughly 3 nM.

B6: anti-4-1BB/PD-L1 bispecific antibody Kh2NF-P4 (bispecific antibody, human IgG1, kappa, L234A L235A)
heavy: not shown
light: not shown
chain: QVQLQESGGGLVQPGGSLRLSCAASAYTISRNSMGWFRQAPGKGLEGVAAIESDGSTSYSDSVKGRFTISLDNSKNTLYLEMNSLRAEDTAVYYCAAPKVGLGPRTALGHLAFMTLPALNYWGQGTLVTVSSGGGGSGGGGSGGGGSGGGGSQVQLQESGGGLVQPGGSLRLSCAASAYTISRNSMGWFRQAPGKGLEGVAAIESDGSTSYSDSVKGRFTISLDNSKNTLYLEMNSLRAEDTAVYYCAAPKVGLGPRTALGHLAFMTLPALNYWGQGTLVTVSSDKTHTCPPCPAPEAAGGPSVFLFPPKPKDTLMISRTPEVTCVVVDVSHEDPEVKFNWYVDGVEVHNAKTKPREEQYNSTYRVVSVLTVLHQDWLNGKEYKCKVSNKALPAPIEKTISKAKGQPREPQVCTLPPSRDELTKNQVSLSCAVKGFYPSDIAVEWESNGQPENNYKTTPPVLDSDGSFFLVSKLTVDKSRWQQGNVFSCSVMHEALHNHYTQKSLSLSPG
notes: Triple-chain antibody; Fc with LALA and knob-in-hole mutations
With B6 the “EC50 (read off the curve)” value [2] was roughly 5 nM and the “EC50 (read off the curve)” value [13] was roughly 2 nM.
